Earlier results, collected in PMC3654037.
pKd: −log10 of the molar value.

Key:
CD48 (Homo sapiens) = CD48 (Homo sapiens) (UniProt P09326)
CD58 (Homo sapiens) = CD58 (Homo sapiens) (UniProt P19256)
CD86 (Homo sapiens) = CD86 (Homo sapiens) (UniProt P42081)
nectin-1 (Homo sapiens) = nectin-1 (Homo sapiens) (UniProt Q15223)
nectin-2 (Homo sapiens) = nectin-2 (Homo sapiens) (UniProt Q92692)
nectin-4 (Homo sapiens) = nectin-4 (Homo sapiens) (UniProt Q96NY8)

Chain of UniProt P42081 (P42081 24-247): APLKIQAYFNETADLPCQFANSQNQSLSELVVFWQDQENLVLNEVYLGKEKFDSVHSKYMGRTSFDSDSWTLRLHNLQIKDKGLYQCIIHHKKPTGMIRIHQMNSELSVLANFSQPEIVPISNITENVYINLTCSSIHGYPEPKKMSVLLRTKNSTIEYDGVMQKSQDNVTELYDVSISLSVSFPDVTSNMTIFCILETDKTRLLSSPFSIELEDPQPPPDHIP
Chain of UniProt P09326 (P09326 27-220): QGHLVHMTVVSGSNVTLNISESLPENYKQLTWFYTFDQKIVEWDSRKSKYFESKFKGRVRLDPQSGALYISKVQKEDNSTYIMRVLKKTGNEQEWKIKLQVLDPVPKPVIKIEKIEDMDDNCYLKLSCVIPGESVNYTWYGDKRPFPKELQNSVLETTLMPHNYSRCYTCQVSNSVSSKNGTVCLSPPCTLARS
Chain of UniProt P19256 (P19256 29-215): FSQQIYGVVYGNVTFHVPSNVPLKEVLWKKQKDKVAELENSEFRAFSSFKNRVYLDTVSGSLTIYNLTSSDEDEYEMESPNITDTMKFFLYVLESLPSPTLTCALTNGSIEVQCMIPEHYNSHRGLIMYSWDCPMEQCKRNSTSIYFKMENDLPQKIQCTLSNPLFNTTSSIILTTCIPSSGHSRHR

## 2B4 (from UniProt Q9BZW8)
CD48 (Homo sapiens)
  pKd: 5.00

## CD2 (from UniProt P06729)
CD58 (Homo sapiens)
  pKd: 5.00

## CD28 (from UniProt P10747)
CD86 (Homo sapiens)
  pKd: 4.70

## nectin-1 (from UniProt Q15223)
nectin-1 (Homo sapiens)
  pKd: 4.76

## nectin-2 (from UniProt Q92692)
nectin-2 (Homo sapiens)
  pKd: 6.40

## nectin-4 (from UniProt Q96NY8)
nectin-4 (Homo sapiens)
  pKd: 3.82
